WO2014196658A1 (dated 2014)

Tests used:
[1] = biological target: T1, human aquaporin 4 (hAQP4) M23 isoform (human, UniProt P55087 1-323); assay: ELISA on plates coated with budded baculovirus expressing human AQP4 M23
[2] = biological target: T1, human aquaporin 4 (hAQP4) M23 isoform; assay: cell ELISA on live CHO cells expressing hAQP4 M23, 37 °C 1 h, 4-parameter logistic fit

T1 sequence (P55087 whole entry, canonical isoform): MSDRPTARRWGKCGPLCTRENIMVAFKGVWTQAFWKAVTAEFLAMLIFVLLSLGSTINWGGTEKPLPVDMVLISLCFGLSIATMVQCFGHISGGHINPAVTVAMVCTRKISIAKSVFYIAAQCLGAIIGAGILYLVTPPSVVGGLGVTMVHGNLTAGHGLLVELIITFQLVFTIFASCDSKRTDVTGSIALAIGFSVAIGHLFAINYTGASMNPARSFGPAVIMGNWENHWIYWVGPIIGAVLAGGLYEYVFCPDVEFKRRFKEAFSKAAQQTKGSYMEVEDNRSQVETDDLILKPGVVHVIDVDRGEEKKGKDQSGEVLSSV

EC50 [1] [pM]	EC50 [2] [pM]	Binder
166	162	anti-aquaporin 4 monoclonal antibody produced by hybridoma clone C9401 (antibody, V domains shown, also called C9401 antibody; original antibody (C9401)) VH: QVQLQQSGPELVKPGASVRISCKASGYTFTNYYIHWVKQRPGQGLEWIGWIYPGNVNTKKNEKFKGKATLTADKSSSTAYMQLSSLTSEDSAVYFCARGVPYAFWGQGTLVTVSA VL: DIVLTQSPASLAVSLGQRATISCRASKSVDSYGNSFMHWYQQKPGQPPKLLIYRASNLESGIPARFSGSGSRTDFTLTINPVEADDVATYYCQQSNEDPPTFGGGTKLEIKR
–	116	anti-aquaporin 4 monoclonal antibody produced by hybridoma clone D12092 (antibody, V domains shown, Mouse antibody from a hybridoma; also called D12092 antibody) VH: QVQLKESGPGLVAPSQSLSITCTVSGFSLTRYGVHWVRQPPGKGLEWLVVIWSDGSTTYNSALKSRLSISKDNSKSQVFLKMNSLQTDDTAIYYCARGPPFAYWGQGTLVTVST VL: DIVLTQSPASLAVSLGQRATISCRASKSVDSYGNSFMHWYQQKPGQPPKLLIYRASNLESGIPARFSGSGSRTDFTLTINPVEADAVATYYCQQSYEDPPTFGAGTKLEIKR
–	150	anti-aquaporin 4 monoclonal antibody produced by hybridoma clones D15107 and D15129 (same antibody) (antibody, V domains shown, Mouse antibody from hybridomas; They are therefore one molecule here, and the rows keep the printed label; also called D15107 (D15129); D15107/D15129) VH: QVQLKESGPGLVAPSQSLSITCTVSGFSLTSYGVHWVRQPPGKGLEWLGVIWAGRRTNYNSALMSRLSISKDNSKSQVFLKMNSLQTDDTAMYYCARGDGIFPYWGQGTLVTVSA VL: DIVLTQSPGSLAVSLGQRATISCRASESVDSYGNSFMHWYQQKSGQPPKLLIYRASNLESGIPARFSGSGSRTDFTLTINPVEADDVATYYCQQSNEDPFTFGSGTKLEIKR
